Reference: publication PMC7365037

Tests used:
Experiment in all cases: ITC
[1] = target: human CBX1 chromodomain, wild-type (His-tagged) (human) (UniProt P83916)
[2] = target: human CBX3 chromodomain, wild-type (His-tagged) (human) (UniProt Q13185)
[3] = target: human CBX1 chromodomain double mutant K46A/D62F (HP1α numbering) (His-tagged) (human)
[4] = target: human CBX3 chromodomain double mutant K46A/D62F (HP1α numbering) (His-tagged) (human)
[5] = target: HP1α chromodomain from D. melanogaster, wild-type (His-tagged) (D. melanogaster) (UniProt P05205)
[6] = target: HP1α K46A/E52D/D62F engineered chromodomain (His-tagged) (D. melanogaster) (UniProt P05205)

Sequence of UniProt P83916 (P83916 15-73): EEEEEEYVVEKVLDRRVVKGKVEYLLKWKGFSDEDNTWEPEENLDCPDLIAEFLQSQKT
Sequence of UniProt Q13185 (Q13185 25-81): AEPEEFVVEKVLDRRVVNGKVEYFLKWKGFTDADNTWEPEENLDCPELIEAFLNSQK

H3K9me3 peptide (used in ITC)
Kd [1]: 600 nM | Kd [2]: 3000 nM | Kd [3]: 130 nM | Kd [4]: 400 nM | Kd [5]: 14 µM | Kd [6]: 700 nM
